Measured values reported in article doi:10.1101/2023.10.26.564249.

Target: His6-RpoS (sigma S) (Salmonella enterica serovar Typhimurium 14028s) (UniProt D0ZVL4)
Assay: EMSA
Conditions: LightShift chemiluminescent EMSA kit, 20 uL: 1 ng biotin-DNA, 2 uL binding buffer, 1 ug poly(dI.dC), 1 uL 50% glycerol, 1 uL 1 M KCl (about 50 mM added)

Sequence of His6-RpoS (sigma S) (Salmonella enterica serovar Typhimurium 14028s) (D0ZVL4 whole entry): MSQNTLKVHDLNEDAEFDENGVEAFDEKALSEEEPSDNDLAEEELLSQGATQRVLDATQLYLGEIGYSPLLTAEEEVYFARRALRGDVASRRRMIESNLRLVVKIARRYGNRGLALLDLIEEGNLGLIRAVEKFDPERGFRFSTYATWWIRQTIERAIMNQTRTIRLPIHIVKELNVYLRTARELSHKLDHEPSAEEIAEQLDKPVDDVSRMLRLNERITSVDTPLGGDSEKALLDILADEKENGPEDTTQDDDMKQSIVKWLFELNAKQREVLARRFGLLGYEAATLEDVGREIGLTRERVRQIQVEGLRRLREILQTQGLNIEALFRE

Row | Sequence | binding
1 | ACTCGTATGTTTATCATGCAACCTATAAATAAATGTTATATTCAATAACTAATATTACATCTCAAATTCTCTCAAGTATGTCATAACGCTGCAGCAAATAAAAGTCAGTCAGC (double strand) [waaZ promoter] | binds
2 | ACTTCCCCGAGCTTAAAAATGACCCAAACGGGTGTACCGATCTTAGTCTGCTGGCTGGCGCTGTAGCAAAGTTTAATGTCATCGGTAACCGGCTGGATTTAGCGATCCCTCAAATCGCG (double strand) [sthC promoter] | binds
